According to US20230220057A1 (STAIDSON BEIJING BIOPHARMACEUTICALS, published 2023):

These binders were tested against recombinantly produced human-NGF (human, UniProt P01138 122-241, limits assumed) (assay: ELISA, human NGF coated, IgG titrated).
Protocol: NGF binding ELISA assay: In human NGF binding ELISA, Corning 3366 high binding 96 well plates were coated with recombinantly produced human-NGF at 1 μg per ml, 50 μl/well in 1×PBS, and incubated overnight at 4° C. The plates were washed and blocked with 250 μl of 1×PBS/1% BSA at least 30 minutes at room temperature. 50 μl of culture supernatants, after 1:1 diluted by the PBS/BSA diluent, or the purified antibodies diluted serially from a certain concentration with the diluent, were added per well, and incubated at 37° C. for 2 hours. After washing, a secondary antibody, goat anti-human IgG Fc AP (Southern biotech) was applied at a dilution of 1:3000 in PBS/BSA. The plates were incubated for 1 hour at RT and washed. After adding the PNPP substrate, the ODs at 405 nm were read.
NGF binding ELISA assay: NGF binding ELISA assay was performed as described in Example 1.

recombinantly produced human-NGF, sequence (P01138 122-241 limits assumed): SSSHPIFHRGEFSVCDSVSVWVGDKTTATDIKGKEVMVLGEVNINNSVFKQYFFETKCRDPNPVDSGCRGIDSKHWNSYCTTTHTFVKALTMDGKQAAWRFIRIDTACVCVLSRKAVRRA

Binder | EC50 [ng/mL]
Ab30 (antibody, human IgG1, V domains shown) VH: EVQLVQSGAEVKKPGATVKISCKVSGYSFITYWISWVQQAPGKGLEWMGAIDPSDSDARYSPSFQGRVTITADKSTDTAYMELSSLRSEDTAVYYCAKSDPGYSGYSLLYGFDSWGQGTLVTVSS VL: DIVMTQSPLSLPVTLGQPASISCRSSQSLVQRNGNTYLSWFQQRPGQPPRLLIYQVSNRYSGVPDRFSGSGSGTDFTLKISRVEAEDVGVYYCGQGAHLPLTFGQGTKVEIK | 0.0254
Ab34 (antibody, human IgG1, V domains shown) VH: EVQLVQSGAEVKKPGATVKISCKVSGYTFITYWISWVQQAPGKGLEWMGAIDPSDSDARYSPSFQGRVTITADKSTDTAYMELSSLRSEDTAVYYCAKSDPGYSGYSLLYGFDSWGQGTLVTVSS VL: DVVMTQSPLSLPVTLGQPASISCRSSQSLVQRNGNTYLSWYQQRPGQSPRLLIYQVSNRYSGVPDRFSGSGSGTDFTLKISRVEAEDVGVYYCGQGAHLPLTFGQGTKVEIK | 0.11
Ab26 (antibody, human IgG1, V domains shown) VH: EVQLVQSGAEVKKPGATVKISCKVSGYSFITYWISWVQQAPGKGLEWMGAIDPSDSDARYSPSFQGRVTITADKSTDTAYMELSSLRSEDTAVYYCAKSDPGYSGYSLLYGFDSWGQGTLVTVSS VL: DVVMTQSPLSLPVTLGQPASISCRSSQSLVQRNGNTYLSWFQQRPGQPPRLLIYQVSNRYSGVPDRFSGSGSGTDFTLKISRVEAEDVGVYYCGQGAHLPLTFGQGTKVEIK | 0.0234
Ab40 (antibody, human IgG1, V domains shown) VH: EVQLVQSGAEVKKPGATVKISCKVSGYTFITYWISWVQQAPGKGLEWMGAIDPSDSDARYSPSFQGRVTITADKSTDTAYMELSSLRSEDTAVYYCAKSDPGYSGYSLLYGFDSWGQGTLVTVSS VL: DIVMTQSPLSLPVTLGQPASISCRSSQSLVQRNGNTYLSWFQQRPGQPPRLLIYQVSNRYSGVPDRFSGSGSGTDFTLKISRVEAEDVGVYYCGQGAHLPLTFGQGTKVEIK | 0.0172
Ab33 (antibody, human IgG1, V domains shown) VH: EVQLVQSGAEVKKPGATVKISCKVSGYTFITYWISWVQQAPGKGLEWMGAIDPSDSDARYSPSFQGRVTITADKSTDTAYMELSSLRSEDTAVYYCAKSDPGYSGYSLLYGFDSWGQGTLVTVSS VL: DVVMTQSPLSLPVTLGQPASISCRSSQSLVQRNGNTYLSWFQQRPGQSPRLLIYQVSNRYSGVPDRFSGSGSGTDFTLKISRVEAEDVGVYYCGQGAHLPLTFGQGTKVEIK | 0.0342
Ab32 (antibody, human IgG1, V domains shown) VH: EVQLVQSGAEVKKPGATVKISCKVSGYTFITYWISWVQQAPGKGLEWMGAIDPSDSDARYSPSFQGRVTITADKSTDTAYMELSSLRSEDTAVYYCAKSDPGYSGYSLLYGFDSWGQGTLVTVSS VL: DIVMTQTPLSSPVTLGQPASISCRSSQSLVQRNGNTYLSWYQQRPGQPPRLLIYQVSNRYSGVPDRFSGSGAGTDFTLKISRVEAEDVGVYYCGQGAHLPLTFGQGTKVEIK | 0.0403

Continued, values first:

EC50 [ng/mL] | Binder
0.0331 | Ab25 (antibody, human IgG1, V domains shown) VH: EVQLVQSGAEVKKPGATVKISCKVSGYSFITYWISWVQQAPGKGLEWMGAIDPSDSDARYSPSFQGRVTITADKSTDTAYMELSSLRSEDTAVYYCAKSDPGYSGYSLLYGFDSWGQGTLVTVSS VL: DVVMTQSPLSLPVTLGQPASISCRSSQSLVQRNGNTYLSWYQQRPGQPPRLLIYQVSNRYSGVPDRFSGSGSGTDFTLKISRVEAEDVGVYYCGQGAHLPLTFGQGTKVEIK
0.0331 | Ab28 (antibody, human IgG1, V domains shown) VH: EVQLVQSGAEVKKPGATVKISCKVSGYSFITYWISWVQQAPGKGLEWMGAIDPSDSDARYSPSFQGRVTITADKSTDTAYMELSSLRSEDTAVYYCAKSDPGYSGYSLLYGFDSWGQGTLVTVSS VL: DIVMTQSPLSLPVTLGQPASISCRSSQSLVQRNGNTYLSWYQQRPGQSPRLLIYQVSNRYSGVPDRFSGSGSGTDFTLKISRVEAEDVGVYYCGQGAHLPLTFGQGTKVEIK
0.0308 | Ab35 (antibody, human IgG1, V domains shown) VH: EVQLVQSGAEVKKPGATVKISCKVSGYTFITYWISWVQQAPGKGLEWMGAIDPSDSDARYSPSFQGRVTITADKSTDTAYMELSSLRSEDTAVYYCAKSDPGYSGYSLLYGFDSWGQGTLVTVSS VL: DVVMTQSPLSLPVTLGQPASISCRSSQSLVQRNGNTYLSWYQQRPGQPPRLLIYQVSNRYSGVPDRFSGSGSGTDFTLKISRVEAEDVGVYYCGQGAHLPLTFGQGTKVEIK
0.0192 | Ab41 (antibody, human IgG1, V domains shown) VH: EVQLVQSGAEVKKPGESLKISCKGSGYSFITYWISWVRQMPGKGLEWMGAIDPSDSDARYSPSFQGQVTISADKSISTAYLQWSSLKASDTAMYYCAKSDPGYSGYSLLYGFDSWGQGTLVTVSS VL: DIVMTQTPLSSPVTLGQPASISCRSSQSLVQRNGNTYLSWLQQRPGQPPRLLIYQVSNRYSGVPDRFSGSGAGTDFTLKISRVEAEDVGVYYCGQGAHLPLTFGQGTKVEIK
0.0208 | Ab39 (antibody, human IgG1, V domains shown) VH: EVQLVQSGAEVKKPGATVKISCKVSGYTFITYWISWVQQAPGKGLEWMGAIDPSDSDARYSPSFQGRVTITADKSTDTAYMELSSLRSEDTAVYYCAKSDPGYSGYSLLYGFDSWGQGTLVTVSS VL: DIVMTQSPLSLPVTLGQPASISCRSSQSLVQRNGNTYLSWYQQRPGQPPRLLIYQVSNRYSGVPDRFSGSGSGTDFTLKISRVEAEDVGVYYCGQGAHLPLTFGQGTKVEIK
0.0502 | Ab31 (antibody, human IgG1, V domains shown) VH: EVQLVQSGAEVKKPGATVKISCKVSGYTFITYWISWVQQAPGKGLEWMGAIDPSDSDARYSPSFQGRVTITADKSTDTAYMELSSLRSEDTAVYYCAKSDPGYSGYSLLYGFDSWGQGTLVTVSS VL: DIVMTQTPLSSPVTLGQPASISCRSSQSLVQRNGNTYLSWLQQRPGQPPRLLIYQVSNRYSGVPDRFSGSGAGTDFTLKISRVEAEDVGVYYCGQGAHLPLTFGQGTKVEIK
0.0292 | Ab29 (antibody, human IgG1, V domains shown) VH: EVQLVQSGAEVKKPGATVKISCKVSGYSFITYWISWVQQAPGKGLEWMGAIDPSDSDARYSPSFQGRVTITADKSTDTAYMELSSLRSEDTAVYYCAKSDPGYSGYSLLYGFDSWGQGTLVTVSS VL: DIVMTQSPLSLPVTLGQPASISCRSSQSLVQRNGNTYLSWYQQRPGQPPRLLIYQVSNRYSGVPDRFSGSGSGTDFTLKISRVEAEDVGVYYCGQGAHLPLTFGQGTKVEIK
0.0206 | Ab27 (antibody, human IgG1, V domains shown) VH: EVQLVQSGAEVKKPGATVKISCKVSGYSFITYWISWVQQAPGKGLEWMGAIDPSDSDARYSPSFQGRVTITADKSTDTAYMELSSLRSEDTAVYYCAKSDPGYSGYSLLYGFDSWGQGTLVTVSS VL: DIVMTQSPLSLPVTLGQPASISCRSSQSLVQRNGNTYLSWFQQRPGQSPRLLIYQVSNRYSGVPDRFSGSGSGTDFTLKISRVEAEDVGVYYCGQGAHLPLTFGQGTKVEIK
0.0252 | Ab38 (antibody, human IgG1, V domains shown) VH: EVQLVQSGAEVKKPGATVKISCKVSGYTFITYWISWVQQAPGKGLEWMGAIDPSDSDARYSPSFQGRVTITADKSTDTAYMELSSLRSEDTAVYYCAKSDPGYSGYSLLYGFDSWGQGTLVTVSS VL: DIVMTQSPLSLPVTLGQPASISCRSSQSLVQRNGNTYLSWYQQRPGQSPRLLIYQVSNRYSGVPDRFSGSGSGTDFTLKISRVEAEDVGVYYCGQGAHLPLTFGQGTKVEIK
